The record followed here is the RNAGym collection of RNA variant scans (doi:10.7554/elife.80360).

First the molecules themselves.
B1: HDV Ribozyme (parent)
chain: GGCCGGCAUGGUCCCAGCCUCCUCGCUGGCGCCGGCUGGGCAACAUUCCGAGGGGACCGUCCCCUCGGUAAUGGCGAAUGGGACCCA

Variants of B1 are the subject of the data set. Kind of data set: self-cleavage, relative activity (ratio to wild type); higher = more cleavage; co-transcriptional.
For the variant GGCCGGCAUGGUCCCAGCCUCCUCGCUGGCGCCGGCUGGCCAACAUUCCGAGGCGACCGUCCCCUCGGUAAUGGCGAAUGGGACCCA [G40C G54C], the self-cleavage is 0.343.
With GGCCGGCAUGGUCCCAGCCUCCUCGCUGCCGCCGGCUGGGCAACAUUCAGAGGGGACCGUCCCCUCGGUAAUGGCGAAUGGGACCCA [G29C C49A] the figure was 0.222; with GGCCGGCAUGGUCCCAGCCUCCUCGCUGGCGCCGGCUGGGCAACAUUCCGAGGGGACCGUCCCCUCGGUAAUGGCGAAUGGCACCCA [G82C], 0.259; with GGCCGGCAUGGGCCCAGCCUCCUCGCUGGCGCCGGCUGGGCAACAUUCCGUGGGGACCGUCCCCUCGGUAAUGGCGAAUGGGACCCA [U12G A51U], 1.13.
GGCCGGCAUGGUCCCAGCCUCCUCGCUGGCGCCGGCUGGGCAACAUUCGGAGGGGACCGUCCCCUCGGUAAUGCCGAAUGGGACCCA [C49G G74C]: the self-cleavage came to 0.192.
With GGCCGGCAUGGUCACAGCCUCCUCGCUGGCGCCGGCUGGGCUACAUUCCGAGGGGACCGUCCCCUCGGUAAUGGCGAAUGGGACCCA [C14A A42U] the figure was 0.201; with GGCCGGCAUGGUCCCAGCCUCCUCGCUGGCGCCGGCUGGGCAACAUUCCGAGGGGACCGUCCCCUCGGUAAUGUCGAAUGGGUCCCA [G74U A83U], 0.259; with GGCCGGCAUGGUCCCAGCCUCCUCGCUGGCGCCGGCUGGGCAACAUCCCGAGGGGAACGUCCCCUCGGUAAUGGCGAAUGGGACCCA [U47C C57A], 0.875.
Then GGCCGGCAUGGUCCCAGCCUCCUCGUUGGCGCCGGCUGGGAAACAUUCCGAGGGGACCGUCCCCUCGGUAAUGGCGAAUGGGACCCA [C26U C41A], with 1.15.
Then GGCCGGCAUGGUCCCAGCCUCCUCGCUGGCGCCGGCUGGGCAACAUUCCGAGGGUACCGUCCCCUCGGUAAUGGCGCAUGGGACCCA [G55U A77C], with 0.353; and GGCCGGCAUGGUCCCAGGCUCCUCGCUGGCGCCGGCUGGGCAACAUUCCGAGGGGAGCGUCCCCUCGGUAAUGGCGAAUGGGACCCA [C18G C57G], with 0.133.
GGCCGGCAUGGUCCCCGCCUCCUCGCUGGCGCCGGCUGGGCAACAUUCCGAGGGGACCGACCCCUCGGUAAUGGCGAAUGGGACCCA [A16C U60A]: the self-cleavage came to 1.11.
With GGCCGGCAUGGUCCCAGCCUCCUCGCUGGCGCCGGCUGGGCAACAUUCCGAGGGGACCGUCCCCUCGGUAAUGGCGAAUUGGAACCA [G80U C84A] the figure was 0.652.
Then GGCCGGCAUGGUCCCAGCCGCCUCGCUGGCGCGGGCUGGGCAACAUUCCGAGGGGACCGUCCCCUCGGUAAUGGCGAAUGGGACCCA [U20G C33G], with 0.185; and GACCGGCAUGGUCCCAGCCUCCUCGCUGGCGCCAGCUGGGCAACAUUCCGAGGGGACCGUCCCCUCGGUAAUGGCGAAUGGGACCCA [G2A G34A], with 0.0536.
As to GGCCGGCAUGGUCCCAGCCUCCUCGCUGGCGCGGGCUGGGCAACAUUCCGAGGGGACCGCCCCCUCGGUAAUGGCGAAUGGGACCCA [C33G U60C], the self-cleavage was determined as 0.196.
With GGCCGGCAUGGUCCCAGCCUCCUCGCUGGCGCCGGCUGGGCAACAUACCGAGGGGACCGUCCCCUCGGUAAUGGCGAGUGGGACCCA [U47A A78G] the figure was 0.831.
With GGCCGGCAUGGUCCCAGCCUCCUCGCUGACGCCGGCUGGGCAACAUUCCGAGGGGACCGUCCCCUCGGUACUGGCGAAUGGGACCCA [G29A A71C] the figure was 0.089.
Then GGCCGGCAUGGUCCCAGCCUCCUCGCUGGCGCCGGCUAGGCAACAUACCGAGGGGACCGUCCCCUCGGUAAUGGCGAAUGGGACCCA [G38A U47A], with 0.0594; and GGCCGGCAUGGUCCCAGCCUCCUCGCUGGCGCCGGCUCGGCGACAUUCCGAGGGGACCGUCCCCUCGGUAAUGGCGAAUGGGACCCA [G38C A42G], with 0.0449; and GGCCGGCAUGGUCCCAGCAUCCUCGCUGGCGCCGGCUGGGCAACAUUCCGAUGGGACCGUCCCCUCGGUAAUGGCGAAUGGGACCCA [C19A G52U], with 0.149.
GGCCGGCAUGGUCCCAGCCUCCUCGCUGGCGCCGGCUGGGCAACAUUCCGAGGGGACCGUCCCCUCGGUAGUGGCGAAUGGGAACCA [A71G C84A]: the self-cleavage stood at 1.02.
With GGCCGGCAUGGUCCCAGCCUGCUCGCUGGCGCCGGCUGGUCAACAUUCCGAGGGGACCGUCCCCUCGGUAAUGGCGAAUGGGACCCA [C21G G40U] the figure was 0.0308; with GGCCGGCAUGGUCCCAGCCUCCUCGCUGGCGCCGGCUGGGCAACAUUCCGAGGGGACGGUCCCCUCGGUAAUGGCGAAUGGGAGCCA [C58G C84G], 0.554; with GGCCGGCAUGGUCCCAGCCUCCUCGCUGGCGGCCGCUGGGCAACAUUCCGAGGGGACCGUCCCCUCGGUAAUGGCGAAUGGGACCCA [C32G G34C], 0.0475.
Then GGCCGGCAUGGUCCCAGCCUCCUCGCUGGCGCCGGCUGGGCAACAUUCCGAGGGGACCGUCCCCUCGGUCAUGGCGAAUGGGACCUA [A70C C86U], with 0.852.
With GGCCGGCAUGGUCCCAGCCUCCUCGUUGGCGCCGGCUGGGCAACAUUCCGAGGGGACCGUCCGCUCGGUAAUGGCGAAUGGGACCCA [C26U C63G] the figure was 0.883; with GGCCGGCAUGGUCCCAGCGUCCUCGCUUGCGCCGGCUGGGCAACAUUCCGAGGGGACCGUCCCCUCGGUAAUGGCGAAUGGGACCCA [C19G G28U], 0.208.
With GGCCGGCAUGGUCCCAGCCUCCUCGCUGGCGCGGGCUGGGCAACAUUCCGAGGGGACCGUCCCGUCGGUAAUGGCGAAUGGGACCCA [C33G C64G], the self-cleavage is 0.156.
In the case of GGCCGGCAUGGUCCCAGCCUCCUCGGUGGCGCCGGCUGGGCAGCAUUCCGAGGGGACCGUCCCCUCGGUAAUGGCGAAUGGGACCCA [C26G A43G], the self-cleavage was determined as 0.437.
With GGCCGGCAUGGUCCCAGCCUCCUCGCUGGCGCUGGCUGGGCAACAUUCCGAGGGGACCGUCCCCUCGGUAAUGGCGCAUGGGACCCA [C33U A77C] the figure was 0.298; with GGCCGGCAUGGUCCCAGCCUCCUCCCUGGCGCCGGCUGGCCAACAUUCCGAGGGGACCGUCCCCUCGGUAAUGGCGAAUGGGACCCA [G25C G40C], 0.156.
